Reference: patent US9176064B2, “Bisubstrate fluorescent probes for protein kinase CK2” (University of Tartu, priority 2012, dated 2015)
Where a SMILES comes first, the peptide text is derived from it. [ ]: non-standard residue; d: D form. The star is where a group is joined. X1 = O=C(CCCCCCCn1cnc2c(Br)c(Br)c(Br)c(Br)c21)*

Experiments:
Test in all cases: Kinase panel residual activity
Format in all cases: biochemical
Details in all cases: compound at 1 micromolar
HIPK3 = HIPK3 (Homo sapiens, UniProt Q9H422)
Sequence of HIPK3 (Q9H422 whole entry, species assumed): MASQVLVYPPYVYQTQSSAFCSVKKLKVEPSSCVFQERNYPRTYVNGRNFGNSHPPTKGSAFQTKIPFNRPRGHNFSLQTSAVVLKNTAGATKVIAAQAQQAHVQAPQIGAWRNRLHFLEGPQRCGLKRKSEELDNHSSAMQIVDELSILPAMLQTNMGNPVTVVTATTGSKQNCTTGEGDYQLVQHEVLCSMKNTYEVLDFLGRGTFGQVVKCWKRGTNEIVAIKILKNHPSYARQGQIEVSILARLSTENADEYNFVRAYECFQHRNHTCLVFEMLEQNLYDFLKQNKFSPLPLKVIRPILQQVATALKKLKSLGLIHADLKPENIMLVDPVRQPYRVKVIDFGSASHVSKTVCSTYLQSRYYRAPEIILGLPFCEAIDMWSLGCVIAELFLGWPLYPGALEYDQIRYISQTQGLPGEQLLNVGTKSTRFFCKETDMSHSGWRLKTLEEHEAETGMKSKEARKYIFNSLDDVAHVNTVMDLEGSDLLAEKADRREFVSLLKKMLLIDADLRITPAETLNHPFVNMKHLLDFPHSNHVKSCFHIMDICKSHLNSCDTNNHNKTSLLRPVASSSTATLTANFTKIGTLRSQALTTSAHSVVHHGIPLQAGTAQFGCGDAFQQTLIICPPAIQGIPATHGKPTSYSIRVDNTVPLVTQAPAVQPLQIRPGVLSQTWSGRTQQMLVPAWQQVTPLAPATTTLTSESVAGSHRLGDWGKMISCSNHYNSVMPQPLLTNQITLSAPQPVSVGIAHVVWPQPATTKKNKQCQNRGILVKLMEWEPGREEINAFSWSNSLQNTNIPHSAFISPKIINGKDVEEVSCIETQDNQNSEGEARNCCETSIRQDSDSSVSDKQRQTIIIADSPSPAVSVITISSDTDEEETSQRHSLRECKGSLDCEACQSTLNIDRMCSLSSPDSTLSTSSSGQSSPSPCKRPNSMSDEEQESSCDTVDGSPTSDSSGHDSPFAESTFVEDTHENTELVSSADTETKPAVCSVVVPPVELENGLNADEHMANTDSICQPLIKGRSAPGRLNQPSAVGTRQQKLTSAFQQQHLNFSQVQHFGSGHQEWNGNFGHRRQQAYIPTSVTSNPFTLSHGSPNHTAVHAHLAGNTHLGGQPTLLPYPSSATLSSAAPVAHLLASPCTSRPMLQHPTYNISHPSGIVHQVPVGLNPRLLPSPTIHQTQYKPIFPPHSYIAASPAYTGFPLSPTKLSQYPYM

MKK2 = MKK2 (Homo sapiens, UniProt P36507)
Sequence of MKK2 (P36507 whole entry, species assumed): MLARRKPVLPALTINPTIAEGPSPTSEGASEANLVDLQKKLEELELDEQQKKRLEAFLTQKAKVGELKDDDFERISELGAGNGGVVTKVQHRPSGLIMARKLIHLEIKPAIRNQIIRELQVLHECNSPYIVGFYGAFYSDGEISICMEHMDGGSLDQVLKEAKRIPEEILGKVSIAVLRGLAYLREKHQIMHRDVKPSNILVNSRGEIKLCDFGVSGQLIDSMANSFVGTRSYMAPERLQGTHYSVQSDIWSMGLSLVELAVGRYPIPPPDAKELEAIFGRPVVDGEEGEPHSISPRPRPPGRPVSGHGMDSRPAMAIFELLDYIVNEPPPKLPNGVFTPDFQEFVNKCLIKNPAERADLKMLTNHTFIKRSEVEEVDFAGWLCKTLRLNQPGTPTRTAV

PAK5 = PAK5 (Homo sapiens, UniProt Q9P286)
Sequence of PAK5 (Q9P286 whole entry): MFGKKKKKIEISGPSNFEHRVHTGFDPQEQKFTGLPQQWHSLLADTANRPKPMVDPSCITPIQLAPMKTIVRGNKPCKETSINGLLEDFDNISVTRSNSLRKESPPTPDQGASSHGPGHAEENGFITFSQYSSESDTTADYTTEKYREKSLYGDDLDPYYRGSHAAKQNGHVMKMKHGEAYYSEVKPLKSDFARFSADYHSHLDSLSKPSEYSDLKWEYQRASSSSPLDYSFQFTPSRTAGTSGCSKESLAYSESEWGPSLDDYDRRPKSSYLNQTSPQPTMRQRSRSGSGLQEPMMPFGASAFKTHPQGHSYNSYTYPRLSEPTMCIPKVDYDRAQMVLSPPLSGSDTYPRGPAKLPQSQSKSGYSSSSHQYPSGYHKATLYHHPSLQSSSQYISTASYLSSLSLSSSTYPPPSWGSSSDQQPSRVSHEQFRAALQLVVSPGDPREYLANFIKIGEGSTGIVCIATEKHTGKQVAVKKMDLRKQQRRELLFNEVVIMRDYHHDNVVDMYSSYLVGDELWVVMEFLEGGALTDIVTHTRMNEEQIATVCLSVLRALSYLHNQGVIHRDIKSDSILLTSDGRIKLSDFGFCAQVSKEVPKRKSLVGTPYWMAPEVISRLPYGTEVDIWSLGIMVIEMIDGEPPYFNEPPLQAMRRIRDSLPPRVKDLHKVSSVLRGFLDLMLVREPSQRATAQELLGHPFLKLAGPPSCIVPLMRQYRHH

NEK6 = NEK6 (Homo sapiens, UniProt Q9HC98)
Sequence of NEK6 (Q9HC98 whole entry, species assumed): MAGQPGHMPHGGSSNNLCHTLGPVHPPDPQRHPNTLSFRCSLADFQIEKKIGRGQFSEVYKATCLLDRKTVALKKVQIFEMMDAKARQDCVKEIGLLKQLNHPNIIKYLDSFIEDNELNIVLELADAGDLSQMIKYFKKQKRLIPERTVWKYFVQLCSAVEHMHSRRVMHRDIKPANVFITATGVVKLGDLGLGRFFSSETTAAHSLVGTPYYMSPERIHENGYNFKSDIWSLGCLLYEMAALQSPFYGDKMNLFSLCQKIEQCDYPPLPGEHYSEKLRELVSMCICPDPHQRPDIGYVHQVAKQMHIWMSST

PIM2 = PIM2 (Homo sapiens, UniProt Q9P1W9)
Sequence of PIM2 (Q9P1W9 whole entry, species assumed): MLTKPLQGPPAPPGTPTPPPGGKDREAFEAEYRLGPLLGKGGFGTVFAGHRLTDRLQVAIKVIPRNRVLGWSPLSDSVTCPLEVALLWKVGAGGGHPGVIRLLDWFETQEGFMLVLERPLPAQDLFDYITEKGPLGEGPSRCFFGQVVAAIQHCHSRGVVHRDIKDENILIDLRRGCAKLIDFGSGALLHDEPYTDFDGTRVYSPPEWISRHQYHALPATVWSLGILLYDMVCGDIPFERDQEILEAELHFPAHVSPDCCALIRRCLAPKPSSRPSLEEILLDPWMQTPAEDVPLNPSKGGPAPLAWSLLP

DYRK2 = biological target: T1, DYRK2 (Homo sapiens, UniProt Q92630)
T1 sequence (Q92630 1-601): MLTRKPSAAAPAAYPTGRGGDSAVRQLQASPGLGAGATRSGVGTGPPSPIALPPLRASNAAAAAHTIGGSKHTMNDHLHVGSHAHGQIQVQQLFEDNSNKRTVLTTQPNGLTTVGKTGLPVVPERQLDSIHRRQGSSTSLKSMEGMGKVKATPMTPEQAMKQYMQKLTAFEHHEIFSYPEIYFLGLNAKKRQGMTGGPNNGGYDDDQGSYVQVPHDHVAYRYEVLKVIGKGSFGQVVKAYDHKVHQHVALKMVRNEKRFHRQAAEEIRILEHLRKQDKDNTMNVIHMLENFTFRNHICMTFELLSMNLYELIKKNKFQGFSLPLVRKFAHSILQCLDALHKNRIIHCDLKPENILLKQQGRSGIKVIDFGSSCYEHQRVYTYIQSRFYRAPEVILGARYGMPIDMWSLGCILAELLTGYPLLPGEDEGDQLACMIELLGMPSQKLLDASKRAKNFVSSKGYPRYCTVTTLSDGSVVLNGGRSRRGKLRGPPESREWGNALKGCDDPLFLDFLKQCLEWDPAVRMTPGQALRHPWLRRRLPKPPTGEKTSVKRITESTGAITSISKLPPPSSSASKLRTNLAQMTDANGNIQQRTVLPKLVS

TAO1 = biological target: T2, TAO1 (Homo sapiens, UniProt Q7L7X3)
T2 sequence (Q7L7X3 1-1001): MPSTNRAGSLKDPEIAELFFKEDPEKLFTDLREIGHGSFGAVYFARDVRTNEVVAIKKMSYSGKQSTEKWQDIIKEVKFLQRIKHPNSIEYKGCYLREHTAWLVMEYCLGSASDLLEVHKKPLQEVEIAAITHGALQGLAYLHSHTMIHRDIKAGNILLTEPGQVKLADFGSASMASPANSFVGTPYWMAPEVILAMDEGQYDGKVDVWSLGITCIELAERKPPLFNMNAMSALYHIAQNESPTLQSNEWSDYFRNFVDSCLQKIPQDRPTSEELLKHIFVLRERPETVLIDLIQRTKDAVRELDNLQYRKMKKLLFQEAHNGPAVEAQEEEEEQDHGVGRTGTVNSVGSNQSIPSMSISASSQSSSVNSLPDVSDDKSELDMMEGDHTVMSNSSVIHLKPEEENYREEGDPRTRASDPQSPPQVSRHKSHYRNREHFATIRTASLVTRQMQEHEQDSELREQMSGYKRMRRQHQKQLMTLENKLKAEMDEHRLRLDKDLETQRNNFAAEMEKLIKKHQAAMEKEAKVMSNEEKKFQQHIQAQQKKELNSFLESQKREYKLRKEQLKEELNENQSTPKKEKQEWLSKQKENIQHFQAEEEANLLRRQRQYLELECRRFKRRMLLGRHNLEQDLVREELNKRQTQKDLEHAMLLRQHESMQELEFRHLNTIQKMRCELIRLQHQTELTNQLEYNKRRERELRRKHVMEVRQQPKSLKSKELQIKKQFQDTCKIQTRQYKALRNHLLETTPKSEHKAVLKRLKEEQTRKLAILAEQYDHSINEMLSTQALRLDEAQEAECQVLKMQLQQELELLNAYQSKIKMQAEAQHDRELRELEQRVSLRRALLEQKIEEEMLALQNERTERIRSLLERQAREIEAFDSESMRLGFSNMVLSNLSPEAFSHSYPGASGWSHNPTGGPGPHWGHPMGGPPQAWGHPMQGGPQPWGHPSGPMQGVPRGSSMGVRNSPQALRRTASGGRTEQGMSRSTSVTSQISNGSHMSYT

PKBb = PKBb (Homo sapiens, UniProt P31751)
Sequence of PKBb (P31751 whole entry): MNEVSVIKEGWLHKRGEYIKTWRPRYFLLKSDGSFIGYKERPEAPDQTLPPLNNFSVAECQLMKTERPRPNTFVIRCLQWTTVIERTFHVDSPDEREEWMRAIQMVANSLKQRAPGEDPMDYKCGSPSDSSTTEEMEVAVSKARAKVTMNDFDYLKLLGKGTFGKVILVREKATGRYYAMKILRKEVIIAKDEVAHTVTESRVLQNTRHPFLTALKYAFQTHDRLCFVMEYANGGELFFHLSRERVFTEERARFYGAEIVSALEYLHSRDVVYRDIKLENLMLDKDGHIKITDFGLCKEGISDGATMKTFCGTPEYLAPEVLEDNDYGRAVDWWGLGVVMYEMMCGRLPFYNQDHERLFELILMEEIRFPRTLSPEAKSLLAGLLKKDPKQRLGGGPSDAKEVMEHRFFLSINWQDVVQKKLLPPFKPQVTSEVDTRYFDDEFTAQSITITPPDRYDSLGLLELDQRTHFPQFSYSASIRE

SIK3 = SIK3 (Homo sapiens, UniProt Q9Y2K2)
Sequence of SIK3 (Q9Y2K2 whole entry, species assumed): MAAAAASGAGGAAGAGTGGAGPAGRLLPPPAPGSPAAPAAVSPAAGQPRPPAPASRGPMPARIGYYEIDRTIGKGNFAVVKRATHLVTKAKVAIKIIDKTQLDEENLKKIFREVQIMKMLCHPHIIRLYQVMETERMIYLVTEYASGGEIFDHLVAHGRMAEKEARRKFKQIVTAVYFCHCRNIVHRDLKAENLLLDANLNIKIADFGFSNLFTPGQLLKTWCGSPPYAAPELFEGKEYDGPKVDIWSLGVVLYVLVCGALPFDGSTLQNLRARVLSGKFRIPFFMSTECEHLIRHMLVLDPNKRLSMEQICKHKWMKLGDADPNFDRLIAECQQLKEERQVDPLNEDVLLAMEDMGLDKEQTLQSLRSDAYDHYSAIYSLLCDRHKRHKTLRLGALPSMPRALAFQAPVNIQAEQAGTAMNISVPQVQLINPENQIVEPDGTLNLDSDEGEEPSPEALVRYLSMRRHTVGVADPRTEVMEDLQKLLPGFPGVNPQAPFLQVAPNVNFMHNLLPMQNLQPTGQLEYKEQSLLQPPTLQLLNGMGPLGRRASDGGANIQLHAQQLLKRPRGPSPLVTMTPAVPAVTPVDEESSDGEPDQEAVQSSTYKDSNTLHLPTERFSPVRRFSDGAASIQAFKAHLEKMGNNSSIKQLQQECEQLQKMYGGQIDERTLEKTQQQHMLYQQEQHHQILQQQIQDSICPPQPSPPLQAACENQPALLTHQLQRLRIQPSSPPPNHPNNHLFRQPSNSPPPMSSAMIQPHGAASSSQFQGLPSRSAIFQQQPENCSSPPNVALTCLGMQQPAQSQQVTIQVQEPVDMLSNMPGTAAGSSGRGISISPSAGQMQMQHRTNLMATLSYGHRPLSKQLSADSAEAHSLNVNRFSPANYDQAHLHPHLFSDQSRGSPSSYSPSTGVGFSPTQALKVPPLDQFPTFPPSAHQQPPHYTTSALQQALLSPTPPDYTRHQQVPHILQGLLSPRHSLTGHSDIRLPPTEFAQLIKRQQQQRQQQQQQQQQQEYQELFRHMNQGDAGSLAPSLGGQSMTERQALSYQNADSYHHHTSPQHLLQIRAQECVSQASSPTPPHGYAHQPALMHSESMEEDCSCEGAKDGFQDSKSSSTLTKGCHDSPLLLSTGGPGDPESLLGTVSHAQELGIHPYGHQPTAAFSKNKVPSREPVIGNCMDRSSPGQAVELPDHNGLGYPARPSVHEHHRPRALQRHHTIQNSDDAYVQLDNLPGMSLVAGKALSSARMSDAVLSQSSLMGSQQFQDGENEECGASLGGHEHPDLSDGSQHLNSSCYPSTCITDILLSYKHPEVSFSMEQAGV

PKA = PKA (Homo sapiens, UniProt P17612)
PKD1 = biological target: T3, PKD1 (Homo sapiens, UniProt Q15139)
T3 sequence (Q15139 1-912): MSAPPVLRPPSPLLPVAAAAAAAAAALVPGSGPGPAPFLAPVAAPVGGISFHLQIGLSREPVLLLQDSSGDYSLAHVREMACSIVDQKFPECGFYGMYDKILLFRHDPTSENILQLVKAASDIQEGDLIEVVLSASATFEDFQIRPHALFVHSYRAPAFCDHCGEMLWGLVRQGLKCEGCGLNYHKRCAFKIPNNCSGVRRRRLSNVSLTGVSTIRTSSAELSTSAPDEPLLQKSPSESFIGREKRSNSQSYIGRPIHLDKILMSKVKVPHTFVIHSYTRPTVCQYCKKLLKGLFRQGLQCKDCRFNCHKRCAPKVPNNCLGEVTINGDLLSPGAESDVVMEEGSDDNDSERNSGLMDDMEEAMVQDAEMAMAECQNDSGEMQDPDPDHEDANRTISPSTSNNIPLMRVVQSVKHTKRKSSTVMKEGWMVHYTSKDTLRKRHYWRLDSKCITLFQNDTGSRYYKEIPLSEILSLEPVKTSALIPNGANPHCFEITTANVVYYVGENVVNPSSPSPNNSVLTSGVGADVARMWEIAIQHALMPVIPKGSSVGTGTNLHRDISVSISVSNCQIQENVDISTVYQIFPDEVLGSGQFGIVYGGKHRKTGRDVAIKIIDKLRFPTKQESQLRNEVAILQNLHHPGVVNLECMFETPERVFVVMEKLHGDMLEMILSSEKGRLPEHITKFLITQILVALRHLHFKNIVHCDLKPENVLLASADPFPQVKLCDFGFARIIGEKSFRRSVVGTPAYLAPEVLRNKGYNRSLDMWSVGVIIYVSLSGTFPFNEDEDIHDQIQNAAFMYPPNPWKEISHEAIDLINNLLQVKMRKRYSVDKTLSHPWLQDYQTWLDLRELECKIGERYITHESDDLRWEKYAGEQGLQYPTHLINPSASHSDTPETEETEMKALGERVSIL

`NCCCC[C@H](NC(=O)[C@H](CC(=O)O)NC(=O)[C@H](CC(=O)O)NC(=O)[C@H](CC(=O)O)NC(=O)[C@H](CC(=O)O)NC(=O)[C@H](CC(=O)O)NC(=O)[C@@H](CC(=O)O)NC(=O)CCCCCCCn1cnc2c(Br)c(Br)c(Br)c(Br)c21)C(=O)O` [TBBI-OcA-(D-Asp)-(L-Asp)5-(L-Lys)-OH] (X1-[dD]DDDDDK-OH) showed a remaining activity at 1 µM (HIPK3) of 75%, a remaining activity at 1 µM (MKK2) of 66% and a remaining activity at 1 µM (PAK5) of 81%. For the same compound, the remaining activity at 1 µM (NEK6) was 121%, the remaining activity at 1 µM (PIM2) was 92% and the remaining activity at 1 µM (DYRK2) was 17%. The remaining activity at 1 µM (TAO1) was 84%, the remaining activity at 1 µM (PKBb) was 72% and the remaining activity at 1 µM (SIK3) was 74%. The remaining activity at 1 µM (PKA) was 100% and the remaining activity at 1 µM (PKD1) was 72%.
